B1: FBXO3 (parent)
chain: DEEERRRRVFDVPIRRRRCSRLF
B2: MFF (parent)
chain: YTEGISQRMRVPEKLKVAPPNADL

Variants of: B1
Assay: protein stability index of a GFP-peptide fusion (GPS, HEK-293T) (PSI 1-6); higher = more stable
Conditions: c terminus: native
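Also: lentivirally expressed fusions sorted by FACS into six bins by GFP to DsRed ratio, PSI derived from sequencing read proportions per bin multiplied by bin number.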

Protein stability index: each site, then its substitutions
D1: M 2.97, C 1.58, I 2.83, T 2.2, S 1.85, L 1.97, Q 1.69, N 2.05, H 1.87, A 2.65, P 2.55, K 2.27, E 3.14, F 1.92, G 1.91

Variants of: B2
Assay: as above
Conditions: c terminus: a fixed tail appended

Protein stability index: each site, then its substitutions
M9: G 2.89, T 2.74, Q 2.79, R 2.54, E 2.89, H 3.17, A 2.41, Y 2.57, L 3.22, D 3.57, F 3.02, P 3.27, W 2.01, C 2.49, V 2.35, N 2.96, K 3.37, S 2.55, I 2.2
A22: M 2.68, F 2.83, P 2.9, C 2.62, D 3.34, E 3.33, G 2.96, V 3.09, N 2.92, R 2.77, L 2.39, T 2.91, Y 2.56, H 2.69, W 2.45, S 2.87, K 3.28, I 2.45, Q 2.81
A18: K 2.59, T 3.03, E 3.03, N 2.78, M 2.89, C 2.77, Y 2.59, V 2.72, G 2.54, L 2.88, F 2.2, W 2.23, H 3.88, Q 3.24, I 3.15, P 2.89, S 2.85, D 3.19, R 2.67
L24: T 2.95, C 2.87, S 2.86, R 2.89, G 2.91, N 3.08, I 2.8, H 3.52, A 3, M 2.91, E 3.74, V 2.61, K 3, F 2.49, Y 2.6, P 2.92, D 3.88, W 2.14, Q 3.14
N21: I 2.34, V 3.09, K 2.99, C 2.33, T 2.71, D 3.1, H 2.91, F 2.25, L 2.09, G 2.72, Y 2.5, Q 2.9, A 3.21, S 3.24, R 3.19, W 2, E 2.87, M 2.67
K14: S 3.38, I 2.71, T 3.06, D 3.13, M 3.39, E 3.17, C 3.07, R 3.55, F 2.96, N 3.44, Q 3.41, Y 2.44, W 2.11, G 3.28, A 3.06, V 2.72, L 2.87, P 3.32, H 2.88
R10: N 2.59, F 1.44, I 2.97, H 2.52, Y 2.08, C 2.74, D 2.71, S 2.72, G 2.83, A 2.17, T 2.6, P 3.44, E 2.83, V 2.49, L 3.06, M 2.48, K 3.16, W 3.33, Q 3.11
V11: G 2.9, Y 2.6, A 2.89, M 3.11, T 3.24, F 2.7, E 2.84, N 2.91, H 2.96, Q 2.62, C 2.8, S 3.29, K 2.76, D 2.75, R 2.48, L 2.59, W 2.18, I 2.96, P 2.78
P19: C 3.25, W 1.91, G 2.78, S 2.62, F 2.44, R 2.43, Y 2.33, I 2.52, E 2.56, M 2.32, T 2.51, L 3.41, A 2.51, D 3.37, H 2.54, N 2.78, V 3.29, Q 2.67, K 2.71
R8: Y 1.75, P 2.81, L 2.2, N 3.18, W 2.3, D 3.76, K 2.52, M 2.16, H 2.28, T 2.76, I 1.57, F 1.95, S 2.43, V 2.6, E 3.6, Q 2.79, G 2.47
E13: N 2.53, R 2.9, F 2.35, D 2.86, I 2.49, S 3.18, Y 2.54, Q 2.65, M 2.64, G 2.18, C 2.53, A 2.95, K 2.2, L 2.33, H 2.98, T 2.57, P 2.65, V 2.79, W 2.16
V17: K 3.29, M 2.75, Q 2.95, D 3.18, F 2.6, C 2.18, T 2.89, H 2.9, I 2.54, R 3.22, E 3.25, L 2.88, A 2.82, G 2.65, N 2.85, P 3.31, W 2.35, S 2.48, Y 2.3
L15: V 3.09, W 2.51, P 3.05, G 3.38, N 2.99, D 3.08, Y 3.12, A 3.15, C 2.44, S 3.15, E 3.36, I 2.69, M 2.59, T 2.71, H 2.91, Q 3.06, R 2.58, F 2.53, K 3.19
P12: V 2.64, Q 2.78, Y 2.58, M 2.59, F 1.88, I 2.21, T 2.09, K 2.57, A 3.06, G 2.46, E 2.69, N 2.96, L 2.42, W 2.46, D 2.73, H 2.77, C 2.14, R 2.82, S 2.53
P20: F 2.01, S 2.65, D 3.04, V 3.06, L 2.24, A 2.98, T 2.69, C 2.44, R 2.75, E 3.55, K 3.51, Q 3.44, I 2.75, G 2.91, W 2.35, N 3.12, H 2.69, Y 2.04, M 2.66
D23: V 2.12, E 2.36, I 2.29, Y 2.57, C 2.47, A 2.34, R 2.95, K 2.63, N 2.65, H 2.95, T 2.38, M 2.51, F 2.47, W 2.23, Q 2.36, L 2.02, S 2.11, G 2.72
K16: T 3.16, W 2.49, P 2.83, L 2.62, I 3.23, S 3.62, F 2.8, Y 2.81, G 3.27, N 3.33, V 2.9, D 3.87, R 2.34, E 2.93, M 2.77, H 3.21, C 2.81, Q 2.67, A 2.68

From the supplement of paper PMC10567573
